The values below come from patent US20230151068A1.

The target in this experiment is biotinylated His-Avi-TEAD (194-411) (UniProt P28347). Description: SSM screen, enrichment after two rounds of sorting.
GSPDEYIERAKECCHKGDIQCCLRYFEESGDPNVMLICLFCP (designed binder) [K13H variant of SEQ ID NO: 1] registered an enrichment score of -0.44.

Take GSPDEYIERAKECCKKGTIQCCLRYFEESGDPNVMLICLFCP (designed binder) [D16T variant of SEQ ID NO: 1]: the enrichment score is -10.

For GSPDEYIERAKECCKHGDIQCCLRYFEESGDPNVMLICLFCP (designed binder) [K14H variant of SEQ ID NO: 1], the enrichment score was 0.53.

With GSPDEYIERAKECCKKIDIQCCLRYFEESGDPNVMLICLFCP (designed binder) [G15I variant of SEQ ID NO: 1], the enrichment score is -1.96.

Molecule GSPDEYIERAKECCKKGDMQCCLRYFEESGDPNVMLICLFCP (designed binder) [I17M variant of SEQ ID NO: 1] registered an enrichment score of -2.95.

On to GSPDEYIERAKECCRKGDIQCCLRYFEESGDPNVMLICLFCP (designed binder) [K13R variant of SEQ ID NO: 1], for which the enrichment score was -0.81.

On to GSPDEYIERAKECCKKGSIQCCLRYFEESGDPNVMLICLFCP (designed binder) [D16S variant of SEQ ID NO: 1], for which the enrichment score was -2.71.

Molecule GSPDEYIERAKECCKKGDIMCCLRYFEESGDPNVMLICLFCP (designed binder) [Q18M variant of SEQ ID NO: 1] showed an enrichment score of -9.52.

Molecule GSPDEYIERAKECCKNGDIQCCLRYFEESGDPNVMLICLFCP (designed binder) [K14N variant of SEQ ID NO: 1] showed an enrichment score of 1.51.

In the case of GSPDEYIERAKECCKKSDIQCCLRYFEESGDPNVMLICLFCP (designed binder) [G15S variant of SEQ ID NO: 1], the enrichment score was found to be 2.37.

The molecule GSPDEYIERAKECCKKGDTQCCLRYFEESGDPNVMLICLFCP (designed binder) [I17T variant of SEQ ID NO: 1] registered an enrichment score of 2.21.

For the molecule GSPDEYIERAKECCKKGRIQCCLRYFEESGDPNVMLICLFCP (designed binder) [D16R variant of SEQ ID NO: 1], the enrichment score was -5.59.

In the case of GSPDEYIERAKECCKKGDINCCLRYFEESGDPNVMLICLFCP (designed binder) [Q18N variant of SEQ ID NO: 1], the enrichment score is -0.16.

Consider GSPDEYIERAKECCKKGDITCCLRYFEESGDPNVMLICLFCP (designed binder) [Q18T variant of SEQ ID NO: 1], for which the enrichment score is -2.28.

For GSPDEYIERAKECCQKGDIQCCLRYFEESGDPNVMLICLFCP (designed binder) [K13Q variant of SEQ ID NO: 1], the enrichment score came out at 2.23.

Regarding GSPDEYIERAKECCKKNDIQCCLRYFEESGDPNVMLICLFCP (designed binder) [G15N variant of SEQ ID NO: 1], the enrichment score is 3.06.

For the molecule GSPDEYIERAKECCKKGDIICCLRYFEESGDPNVMLICLFCP (designed binder) [Q18I variant of SEQ ID NO: 1], the enrichment score was -11.4.

In turn, GSPDEYIERAKECCKKMDIQCCLRYFEESGDPNVMLICLFCP (designed binder) [G15M variant of SEQ ID NO: 1] came in with an enrichment score of 1.64.

The molecule GSPDEYIERAKECCKKGDNQCCLRYFEESGDPNVMLICLFCP (designed binder) [I17N variant of SEQ ID NO: 1] showed an enrichment score of 0.47.

As to GSPDEYIERAKECCKQGDIQCCLRYFEESGDPNVMLICLFCP (designed binder) [K14Q variant of SEQ ID NO: 1], the enrichment score amounted to 0.17.

For GSPDEYIERAKECCLKGDIQCCLRYFEESGDPNVMLICLFCP (designed binder) [K13L variant of SEQ ID NO: 1], the enrichment score is -1.37.

As for GSPDEYIERAKECCKKHDIQCCLRYFEESGDPNVMLICLFCP (designed binder) [G15H variant of SEQ ID NO: 1], the enrichment score was 3.18.

Take GSPDEYIERAKECCKKGKIQCCLRYFEESGDPNVMLICLFCP (designed binder) [D16K variant of SEQ ID NO: 1]: the enrichment score is -6.95.

Molecule GSPDEYIERAKECCKKGDHQCCLRYFEESGDPNVMLICLFCP (designed binder) [I17H variant of SEQ ID NO: 1] showed an enrichment score of -3.33.

GSPDEYIERAKECCKKGDAQCCLRYFEESGDPNVMLICLFCP (designed binder) [I17A variant of SEQ ID NO: 1] came in with an enrichment score of -4.36.

For GSPDEYIERAKECCKRGDIQCCLRYFEESGDPNVMLICLFCP (designed binder) [K14R variant of SEQ ID NO: 1], the enrichment score was -1.06.

For the molecule GSPDEYIERAKECCKKGMIQCCLRYFEESGDPNVMLICLFCP (designed binder) [D16M variant of SEQ ID NO: 1], the enrichment score is -4.12.

GSPDEYIERAKECCKKGDKQCCLRYFEESGDPNVMLICLFCP (designed binder) [I17K variant of SEQ ID NO: 1]: the enrichment score is -4.53.

On to GSPDEYIERAKECCSKGDIQCCLRYFEESGDPNVMLICLFCP (designed binder) [K13S variant of SEQ ID NO: 1], for which the enrichment score came out at 1.43.

The molecule GSPDEYIERAKECCKTGDIQCCLRYFEESGDPNVMLICLFCP (designed binder) [K14T variant of SEQ ID NO: 1] showed an enrichment score of 3.18.

GSPDEYIERAKECCKAGDIQCCLRYFEESGDPNVMLICLFCP (designed binder) [K14A variant of SEQ ID NO: 1] registered an enrichment score of -0.22.

GSPDEYIERAKECCKKGDIRCCLRYFEESGDPNVMLICLFCP (designed binder) [Q18R variant of SEQ ID NO: 1] gave an enrichment score of -3.67.

In the case of GSPDEYIERAKECCKKGDQQCCLRYFEESGDPNVMLICLFCP (designed binder) [I17Q variant of SEQ ID NO: 1], the enrichment score was -3.1.

On to GSPDEYIERAKECCKKQDIQCCLRYFEESGDPNVMLICLFCP (designed binder) [G15Q variant of SEQ ID NO: 1], for which the enrichment score amounted to 2.5.

In the case of GSPDEYIERAKECCKKGDISCCLRYFEESGDPNVMLICLFCP (designed binder) [Q18S variant of SEQ ID NO: 1], the enrichment score was -1.25.

The molecule GSPDEYIERAKECCKKADIQCCLRYFEESGDPNVMLICLFCP (designed binder) [G15A variant of SEQ ID NO: 1] registered an enrichment score of 1.89.

In turn, GSPDEYIERAKECCKKGQIQCCLRYFEESGDPNVMLICLFCP (designed binder) [D16Q variant of SEQ ID NO: 1] returned an enrichment score of -3.47.

The molecule GSPDEYIERAKECCKMGDIQCCLRYFEESGDPNVMLICLFCP (designed binder) [K14M variant of SEQ ID NO: 1] registered an enrichment score of -0.92.

GSPDEYIERAKECCKKGHIQCCLRYFEESGDPNVMLICLFCP (designed binder) [D16H variant of SEQ ID NO: 1] returned an enrichment score of -4.55.

With GSPDEYIERAKECCKSGDIQCCLRYFEESGDPNVMLICLFCP (designed binder) [K14S variant of SEQ ID NO: 1], the enrichment score is 1.61.

GSPDEYIERAKECCKKGDRQCCLRYFEESGDPNVMLICLFCP (designed binder) [I17R variant of SEQ ID NO: 1] registered an enrichment score of 0.46.

On to GSPDEYIERAKECCKKGIIQCCLRYFEESGDPNVMLICLFCP (designed binder) [D16I variant of SEQ ID NO: 1], for which the enrichment score is -6.42.

Turning to GSPDEYIERAKECCKKGAIQCCLRYFEESGDPNVMLICLFCP (designed binder) [D16A variant of SEQ ID NO: 1], the enrichment score was -5.23.

Take GSPDEYIERAKECCKKGDSQCCLRYFEESGDPNVMLICLFCP (designed binder) [I17S variant of SEQ ID NO: 1]: the enrichment score is -2.1.

The molecule GSPDEYIERAKECCKKGDIKCCLRYFEESGDPNVMLICLFCP (designed binder) [Q18K variant of SEQ ID NO: 1] had an enrichment score of -1.54.

Regarding GSPDEYIERAKECCKKGNIQCCLRYFEESGDPNVMLICLFCP (designed binder) [D16N variant of SEQ ID NO: 1], the enrichment score is -2.7.

In turn, GSPDEYIERAKECCKKRDIQCCLRYFEESGDPNVMLICLFCP (designed binder) [G15R variant of SEQ ID NO: 1] came in with an enrichment score of 0.91.

Turning to GSPDEYIERAKECCNKGDIQCCLRYFEESGDPNVMLICLFCP (designed binder) [K13N variant of SEQ ID NO: 1], the enrichment score turned out to be 0.6.

In the case of GSPDEYIERAKECCKIGDIQCCLRYFEESGDPNVMLICLFCP (designed binder) [K14I variant of SEQ ID NO: 1], the enrichment score was -0.99.

GSPDEYIERAKECCAKGDIQCCLRYFEESGDPNVMLICLFCP (designed binder) [K13A variant of SEQ ID NO: 1] registered an enrichment score of 1.94.

Regarding GSPDEYIERAKECCTKGDIQCCLRYFEESGDPNVMLICLFCP (designed binder) [K13T variant of SEQ ID NO: 1], the enrichment score came out at 1.49.

Consider GSPDEYIERAKECCMKGDIQCCLRYFEESGDPNVMLICLFCP (designed binder) [K13M variant of SEQ ID NO: 1], for which the enrichment score was -0.4.

Turning to GSPDEYIERAKECCIKGDIQCCLRYFEESGDPNVMLICLFCP (designed binder) [K13I variant of SEQ ID NO: 1], the enrichment score was -1.54.

Consider GSPDEYIERAKECCKKTDIQCCLRYFEESGDPNVMLICLFCP (designed binder) [G15T variant of SEQ ID NO: 1], for which the enrichment score turned out to be 2.65.

Take GSPDEYIERAKECCKKGDIHCCLRYFEESGDPNVMLICLFCP (designed binder) [Q18H variant of SEQ ID NO: 1]: the enrichment score was -4.39.

GSPDEYIERAKECCKKGDIACCLRYFEESGDPNVMLICLFCP (designed binder) [Q18A variant of SEQ ID NO: 1] displayed an enrichment score of -1.53.

Molecule GSPDEYIERAKECCKKKDIQCCLRYFEESGDPNVMLICLFCP (designed binder) [G15K variant of SEQ ID NO: 1] returned an enrichment score of 4.43.
